# Reference: patent US20200141935A1, “SYSTEM, METHOD, APPARATUS AND DIAGNOSTIC TEST FOR PREGNANCY” (BARCELONA INSTITUTE FOR GLOBAL HEALTH, priority 2017, published 2020)
# B1: pcsp: circumsporozoite peptide of 64 aminoacids (NVDP[NANP]15) (peptide)
# peptide: NVDPNANPNANPNANPNANPNANPNANPNANPNANPNANPNANPNANPNANPNANPNANPNANP
# B2: MSP119: recombinant merozoite surface protein-1, 19-kDa, from 3D7 strain (protein)
# chain: NISQHQCVKKQCPENSGCFRHLDEREECKCLLNYKQEGDKCVENPNPTCNENNGGCDADATCTEEDSGSSRKKITCECTKPDSYPLFDGIFCS
# What was measured:
# IgG [1] = test: Multiplex bead-based immunoassay (Luminex): IgG levels (nMFI) against antigens, compared between groups; assay type: binding, pregnant women; conditions: for Immunoreactivity: recognition by IgGs at levels above BSA recognition: 641 pregnant Mozambican women 2003-2012, mean nMFI above mean BSA nMFI plus 3 SD; for Infection during pregnacy Infection vs no-infection ratio (95% CI): Mozambican women followed 2011-2012; for Exposure dependence Decrease 2010 vs 2003-2005 Ratio (95% CI) / Exposure dependence Increase 2011-2012 vs 2010 Ratio (95% CI): nMFI ratio at delivery, Mozambique, adjusted by parity, age, treatment and HIV; for PW Mz vs PW Bcn Ratio (95% CI) / Parasite density Low vs High ratio (95% CI): nMFI ratio; for PW Mz vs PW Bcn Ratio (95% CI): pregnant Mozambican women vs pregnant Spanish women (N=49); for Parasite density Low vs High ratio (95% CI): below or above 200 genomes per microliter
# Source text: (§1) Two multiplex suspension array panels were constructed to quantify IgG responses against P. falciparum recombinant proteins and synthetic peptides, using the xMAP™ technology and the Luminex® 100/200™ System (Luminex® Corp., Austin, Tex.). MagPlex® microspheres (magnetic carboxylated polystyrene microparticles, 5.6 μm) with different spectral signatures were selected for each protein (DBL3X, DBL5ϵ, DBL6ϵ, AMA1 and MSP119), peptides (25 VAR2CSA peptides and pCSP), tetanus toxin and bovine serum albumin (BSA). Antigens were covalently coupled to beads following a modification of the Luminex® Corporation protocol. Protein and peptide multiplex arrays were prepared by pooling together equal volumes of coated beads. Plasma samples or the product of DBS elution were analyzed in duplicate at dilution 1:400 for the protein array and 1:100 for the peptide array. A hyperimmune plasma pool composed by 23 plasmas from malaria infected Mozambican pregnant women (HIP-VAR2CSA) was included in each assay plate, in addition to blanks (wells without sample) to assess background levels. A minimum of 50 microspheres were read per spectral signature and results were exported as crude median fluorescent intensity ([…]). Duplicates were averaged and background MFIs were subtracted. A total of 224 plates were analyzed and the intra-assay variation (mean CV of replicates from 20 plasma samples per plate) ranged from 1.4% to 7.3% for the protein array and from 2.5% to 12.4% for the peptide array. The inter-assay variation (variability of positive pool [HIP-VAR2CSA] between 224 plates) was 5% for the protein array and 26% for the peptide array. Results were normalized (nMFI) to account for plate-to-plate variation by […] the background subtracted MFI of each sample with the value of the positive pool in the same plate and dividing by the median of positive pools in all plates.
# (§2) Antibodies were eluted from DBS from Gabon, […] and Kenya, as previously described. Briefly, to achieve a concentration of eluted blood proteins equivalent to a 1:50 plasma dilution antibodies were eluted from four spots of approximately 3 mm in diameter with 200 μl Luminex® assay buffer (1% BSA, 0.05% sodium azide in filtrated PBS [Phosphate-buffered saline]). […]. Controls blood drops were artificially prepared using fresh erythrocytes (blood type 0, assuming a hematocrit approximately of 50%) and freeze plasma from 49 Spanish pregnant women. Filter papers were stored avoiding humidity at −20° C. in Barcelona.
# (§3) Presence or absence of antibodies was defined by finite mixture models (FMM) for pregnancy-specific antigens (VAR2CSA peptides and recombinant domains) and by the mean plus 3 standard deviation (SD) of IgG response from pregnant women from Barcelona for general malaria antigens (AMA1, MSP119, and pCSP).
# (§4) Data was fitted to a normal distribution by logarithmic transformation of nMFIs. Participant's baseline characteristics and parasitological outcomes were compared between study times and areas by univariate analysis (Fisher's tests for binary outcomes or t-Student test for continuous outcomes). Responses were considered not restricted to malaria when seroprevalences were 5% or high among Spanish pregnant women.
# Linear regression models were used to compare antibody levels from Mozambican and Spanish pregnant women. The capacity of antibody levels to mimic malaria trends in Mozambique was analyzed by linear regression models (2010 was compared with 2003-2005 corresponding to a trend of malaria decrease and 2011-2012 with 2010 to a trend of increase) adjusted by treatment, parity, age and HIV.
# The impact of P. falciparum infection during pregnancy on antibodies at delivery was assessed in linear regression models adjusted by age, parity, HIV and treatment. Changes in antibody levels due to parasite density (below or above 200) were assessed by linear regression models adjusted by age, parity, HIV and treatment. […]
# IgG [2] = test: Multiplex bead-based immunoassay: seroprevalence (finite mixture models or negative control cutoff); assay type: binding, pregnant women; conditions: for SeroPrev Delivery %: 239 pregnant Mozambican women followed 2011-2012; for Seroprevalence MQ (%): IPTp with mefloquine; for Seroprevalence K (%): Kenya; for Seroprevalence K (%) / Seroprevalence M (%) / Seroprevalence B (%) / Seroprevalence G (%): at delivery; for MQ (OR): Placebo as reference; for M (OR) / Seroprevalence M (%): Mozambique; for Seroprevalence PL (%): Placebo group; for Seroprevalence A (%) / A (OR): anemia; for A (OR): Non-A as reference; for Seroprevalence Non-A (%): non anemia; for Seroprevalence B (%): Benin; for G (OR) / Seroprevalence G (%): Gabon; for Seroprevalence SP (%): IPTp with sulfadoxine-pyrimethamine; for SP (OR): MQ as reference; for SeroPrev PW Bcn (%): seroprevalence among pregnant Spanish women never exposed to malaria; for Decrease (OR): seroprevalence odds ratio 2010 vs 2003/5, Mozambique; for Decrease (OR) / Increase (OR): adjusted; for Increase (OR): seroprevalence odds ratio 2011/12 vs 2010, Mozambique
# Source text: as §1, §2, §3, §4
# Seroprevalences between countries (Benin, Gabon and Mozambique for HIV-uninfected and Kenya and Mozambique for HIV-infected), between IPTp intervention group (MQ vs SP for HIV-uninfected and MQ vs Placebo for HIV infected) and anemia status were compared by logistic regression models adjusted by parity, age and treatment.
# The modification of the associations by HIV infection or parity was assessed by including interaction terms into the regression models.
# IgG [3] = test: Antibody dynamics during pregnancy (time to double, half-life, sero-reversion) from bead-based immunoassay; assay type: binding, pregnant Mozambican women; conditions: for Antibody dynamics Time to double weeks (95% CI): women with P. falciparum infection on follow-up, log-linear mixed-effects model
# Source text: as §1
# The adjusted effect of infection on antibody levels was analyzed using log-linear mixed-effects regression models incorporating Gaussian random intercepts. […] Time to double the antibody levels (T2x) and half-lives were calculated in weeks from the estimated rates and the boundaries at 95% confidence interval obtained from mixed-effects models for subjects suffering a P. falciparum infection at follow-up independent of antibody status at recruitment (Ab[−or+]/Pf+) and subjects seropositive at recruitment and no infection detected on follow-up (Ab+/Pf−), respectively. In situations that the increase rate is a negative value (rate below 1) or the decay rate is a positive value (rate above 1), the calculated T2x or half-life was reported as infinity. Similarly, the time to sero-reversion was calculated for these subjects using the ratio of the seropositivity cutoff by the average antibody titers at recruitment as decay, i.e. how many times the average titers need to be reduced to be equal the cutoff.
# [4] = HIV infected, Kenya as reference
# [5] = HIV uninfected, Benin as reference
# [6] = Mozambican pregnant women at delivery
molecule,measurement,setting,value
B1,Immunoreactivity: recognition by IgGs at levels above BSA recognition,IgG [1],above BSA recognition
same,Infection during pregnacy Infection vs no-infection ratio (95% CI),"IgG [1]; nMFI at delivery, adjusted",3.1 (1.75; 5.49)
same,Exposure dependence Decrease 2010 vs 2003-2005 Ratio (95% CI),IgG [1],0.49 (0.34; 0.71)
same,Exposure dependence Increase 2011-2012 vs 2010 Ratio (95% CI),IgG [1],1.1 (0.80; 1.52)
same,PW Mz vs PW Bcn Ratio (95% CI),IgG [1],8.2 (4.84; 13.87)
same,Parasite density Low vs High ratio (95% CI),IgG [1]; adjusted,1.81 (0.75; 4.37)
same,SeroPrev Delivery %,IgG [2],64%
same,Seroprevalence MQ (%),IgG [2]; HIV infected,12%
same,Seroprevalence K (%),IgG [2]; HIV infected,21%
same,MQ (OR),IgG [2]; HIV infected,0.69 (0.44; 1.07)
same,M (OR),IgG [2]; [4],0.41 (0.26; 0.64)
same,Seroprevalence M (%),IgG [2]; HIV infected,10%
same,Seroprevalence PL (%),IgG [2]; HIV infected,17%
same,Seroprevalence A (%),IgG [2]; HIV infected,12%
same,A (OR),IgG [2]; HIV infected,0.86 (0.52; 1.41)
same,Seroprevalence Non-A (%),IgG [2]; HIV infected,17%
same,Seroprevalence B (%),IgG [2]; HIV uninfected,44%
same,G (OR),IgG [2]; [5],0.37 (0.24; 0.57)
same,Seroprevalence G (%),IgG [2]; HIV uninfected,23%
same,Seroprevalence MQ (%),IgG [2]; HIV uninfected,31%
same,Seroprevalence SP (%),IgG [2]; HIV uninfected,34%
same,M (OR),IgG [2]; [5],0.19 (0.14; 0.26)
same,Seroprevalence M (%),IgG [2]; HIV uninfected,13%
same,SP (OR),IgG [2]; HIV uninfected,1.08 (0.84; 1.38)
same,Seroprevalence A (%),IgG [2]; HIV uninfected,34%
same,A (OR),IgG [2]; HIV uninfected,1.19 (0.94; 1.51)
same,Seroprevalence Non-A (%),IgG [2]; HIV uninfected,31%
same,Seroprevalence 2003/4 (%),IgG [2]; [6],48%
same,Seroprevalence 2005 (%),IgG [2]; [6],57%
same,Seroprevalence 2010 (%),IgG [2]; [6],36%
same,Seroprevalence 2011 (%),IgG [2]; [6],40%
same,Seroprevalence 2012 (%),IgG [2]; [6],46%
same,SeroPrev PW Bcn (%),IgG [2],10%
same,Decrease (OR),IgG [2],0.43 (0.27; 0.69)
same,Increase (OR),IgG [2],1.19 (0.80; 1.78)
same,Antibody dynamics Time to double weeks (95% CI),IgG [3],51.33 (22.30; ∞) weeks
B2,Immunoreactivity: recognition by IgGs at levels above BSA recognition,IgG [1],above BSA recognition
same,Infection during pregnacy Infection vs no-infection ratio (95% CI),"IgG [1]; nMFI at delivery, adjusted",3.69 (1.83; 7.46)
same,Parity MG vs PG ratio (95% CI),"IgG [1]; nMFI at delivery, multigravid vs primigravid Mozambican women, adjusted",1.6 (0.6; 4.29)
same,Exposure dependence Decrease 2010 vs 2003-2005 Ratio (95% CI),IgG [1],0.43 (0.28; 0.65)
same,Exposure dependence Increase 2011-2012 vs 2010 Ratio (95% CI),IgG [1],0.88 (0.60; 1.30)
same,PW Mz vs PW Bcn Ratio (95% CI),IgG [1],85.07 (46.72; 154.9)
same,Parasite density Low vs High ratio (95% CI),IgG [1]; adjusted,2.55 (0.98; 6.63)
same,SeroPrev Delivery %,IgG [2],89%
same,Seroprevalence MQ (%),IgG [2]; HIV infected,85%
same,Seroprevalence K (%),IgG [2]; HIV infected,88%
same,MQ (OR),IgG [2]; HIV infected,0.84 (0.54; 1.32)
same,M (OR),IgG [2]; [4],0.73 (0.46; 1.16)
same,Seroprevalence M (%),IgG [2]; HIV infected,85%
same,Seroprevalence PL (%),IgG [2]; HIV infected,87%
same,Seroprevalence A (%),IgG [2]; HIV infected,85%
same,A (OR),IgG [2]; HIV infected,0.90 (0.56; 1.45)
same,Seroprevalence Non-A (%),IgG [2]; HIV infected,87%
same,Seroprevalence B (%),IgG [2]; HIV uninfected,99%
same,G (OR),IgG [2]; [5],0.08 (0.04; 0.18)
same,Seroprevalence G (%),IgG [2]; HIV uninfected,84%
same,Seroprevalence MQ (%),IgG [2]; HIV uninfected,94%
same,Seroprevalence SP (%),IgG [2]; HIV uninfected,94%
same,M (OR),IgG [2]; [5],0.13 (0.07; 0.26)
same,Seroprevalence M (%),IgG [2]; HIV uninfected,89%
same,SP (OR),IgG [2]; HIV uninfected,1.02 (0.63; 1.66)
same,Seroprevalence A (%),IgG [2]; HIV uninfected,94%
same,A (OR),IgG [2]; HIV uninfected,0.95 (0.60; 1.51)
same,Seroprevalence Non-A (%),IgG [2]; HIV uninfected,95%
same,Seroprevalence in Tanzania,"IgG [2]; HIV-uninfected women, area of Tanzania where no malaria infection was observed",48%
same,Seroprevalence in 2003-2005,"IgG [2]; Mozambican pregnant women at delivery, 2003-2005 pooled",94%
same,Seroprevalence 2003/4 (%),IgG [2]; [6],90%
same,Seroprevalence 2005 (%),IgG [2]; [6],99%
same,Seroprevalence 2010 (%),IgG [2]; [6],94%
same,Seroprevalence 2011 (%),IgG [2]; [6],84%
same,Seroprevalence in 2011-2012,"IgG [2]; Mozambican pregnant women at delivery, 2011-2012 pooled",87%
same,Seroprevalence 2012 (%),IgG [2]; [6],90%
same,SeroPrev PW Bcn (%),IgG [2],4%
same,Decrease (OR),IgG [2],0.81 (0.31; 2.14)
same,Increase (OR),IgG [2],0.37 (0.19; 0.74)
same,Antibody dynamics Sero-revertion weeks (95% CI),"IgG [3]; time to sero-negativisation, seropositive at recruitment, no infection on follow-up",385.42 (207.36; 2728.50) weeks
same,Antibody dynamics Time to double weeks (95% CI),IgG [3],31.69 (15.65; ∞) weeks
